From patent US20030198640A1 (Human Genome Sciences, published 2003)

Assays:
Experiment in all cases: flow cytometry on transiently transfected cells
[1] = target: T1, DR4 on transiently transfected cells (UniProt O00220 24-468, limits assumed)
T1 construct: whole, on cells
T1 sequence (looked up): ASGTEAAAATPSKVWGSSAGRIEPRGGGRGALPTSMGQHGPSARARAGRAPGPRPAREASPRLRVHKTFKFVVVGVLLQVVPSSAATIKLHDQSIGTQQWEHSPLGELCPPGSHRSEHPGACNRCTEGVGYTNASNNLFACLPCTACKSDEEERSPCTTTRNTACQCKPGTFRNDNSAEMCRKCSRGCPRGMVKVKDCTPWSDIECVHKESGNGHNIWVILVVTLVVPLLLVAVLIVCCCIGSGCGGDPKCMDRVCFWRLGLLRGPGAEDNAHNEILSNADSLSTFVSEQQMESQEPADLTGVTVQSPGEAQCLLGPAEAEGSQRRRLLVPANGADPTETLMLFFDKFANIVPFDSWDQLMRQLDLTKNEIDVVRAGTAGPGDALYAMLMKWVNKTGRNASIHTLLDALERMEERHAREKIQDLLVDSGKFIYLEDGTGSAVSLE
Experimental: (§1) One million cells, in 0.1 ml of FACS buffer (PBS, 0.1% BSA, 0.1% NaN₃), were incubated with 0.1-1 microgram of protein or antibody at RT for 15 min. The cells were washed with 3 ml of FACS buffer, reacted with biotinylated primary antibody, and stained with PE-conjugated secondary antibody at RT for 15 min. Cells were then washed again, resuspended in 0.5 microgram/ml of propidium iodide, and live cells were gated and analyzed on a FACScan using the CellQuest software (BD Biosciences).

[2] = target: T2, DcR2 on transiently transfected cells (UniProt Q9UBN6 56-386, limits assumed)
T2 construct: whole, on cells
T2 sequence (looked up): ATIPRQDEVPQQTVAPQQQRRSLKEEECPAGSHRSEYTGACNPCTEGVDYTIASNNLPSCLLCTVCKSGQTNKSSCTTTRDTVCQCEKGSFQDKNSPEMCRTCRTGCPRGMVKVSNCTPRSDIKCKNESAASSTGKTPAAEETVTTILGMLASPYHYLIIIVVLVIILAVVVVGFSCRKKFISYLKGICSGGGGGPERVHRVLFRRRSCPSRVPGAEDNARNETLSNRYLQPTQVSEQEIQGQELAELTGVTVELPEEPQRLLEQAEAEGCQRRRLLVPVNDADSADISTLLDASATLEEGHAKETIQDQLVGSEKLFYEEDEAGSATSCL
Experimental: as §1

[3] = target: T3, CD27 on transiently transfected cells (UniProt P26842 20-260, limits assumed)
T3 construct: whole, on cells
T3 sequence (looked up): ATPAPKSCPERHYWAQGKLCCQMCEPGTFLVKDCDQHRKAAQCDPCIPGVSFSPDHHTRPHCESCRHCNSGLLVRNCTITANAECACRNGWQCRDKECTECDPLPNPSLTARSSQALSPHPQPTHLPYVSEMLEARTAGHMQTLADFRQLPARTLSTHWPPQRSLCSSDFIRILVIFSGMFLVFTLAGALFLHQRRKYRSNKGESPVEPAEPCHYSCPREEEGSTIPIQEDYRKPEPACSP
Experimental: as §1

[4] = target: T4, TNFR2 on transiently transfected cells (UniProt P20333 23-461, limits assumed)
T4 construct: whole, on cells
T4 sequence (looked up): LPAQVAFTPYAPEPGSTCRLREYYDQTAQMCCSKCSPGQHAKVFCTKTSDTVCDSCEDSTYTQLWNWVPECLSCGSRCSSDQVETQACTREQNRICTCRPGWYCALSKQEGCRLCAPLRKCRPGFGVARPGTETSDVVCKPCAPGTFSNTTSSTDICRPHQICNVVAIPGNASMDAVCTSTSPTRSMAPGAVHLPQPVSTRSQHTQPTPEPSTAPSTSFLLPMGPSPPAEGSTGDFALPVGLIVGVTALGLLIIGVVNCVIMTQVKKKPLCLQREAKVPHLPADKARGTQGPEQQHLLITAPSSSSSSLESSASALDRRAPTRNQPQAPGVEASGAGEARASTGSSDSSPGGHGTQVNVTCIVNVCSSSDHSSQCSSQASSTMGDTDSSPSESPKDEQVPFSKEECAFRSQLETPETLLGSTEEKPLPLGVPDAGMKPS
Experimental: as §1

[5] = target: T5, CD30 on transiently transfected cells (UniProt P28908 19-595, limits assumed)
T5 construct: whole, on cells
T5 sequence (looked up): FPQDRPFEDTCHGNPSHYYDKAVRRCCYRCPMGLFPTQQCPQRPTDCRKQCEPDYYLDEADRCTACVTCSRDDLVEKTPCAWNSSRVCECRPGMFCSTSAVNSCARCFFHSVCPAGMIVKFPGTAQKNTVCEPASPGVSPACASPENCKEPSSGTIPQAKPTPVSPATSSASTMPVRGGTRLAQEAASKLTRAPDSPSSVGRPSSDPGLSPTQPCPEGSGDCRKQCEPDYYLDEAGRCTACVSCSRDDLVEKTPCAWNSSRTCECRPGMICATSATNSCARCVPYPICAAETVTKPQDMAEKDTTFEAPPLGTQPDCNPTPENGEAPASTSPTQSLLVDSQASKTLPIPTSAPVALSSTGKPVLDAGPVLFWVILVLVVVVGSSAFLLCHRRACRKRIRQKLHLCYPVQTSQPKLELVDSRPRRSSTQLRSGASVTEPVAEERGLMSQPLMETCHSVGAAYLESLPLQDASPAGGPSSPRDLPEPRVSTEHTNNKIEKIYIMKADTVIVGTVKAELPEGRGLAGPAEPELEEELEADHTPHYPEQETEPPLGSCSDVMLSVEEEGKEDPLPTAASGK
Experimental: as §1

Measured: binding result

B1: FLAG-tagged soluble form of TNF-gamma-beta (aa 72-251) (ligand)
chain: LKGQEFAPSHQQVYAPLRADGDKPRAHLTVVRQTPTQHFKNQFPALHWEHELGLAFTKNRMNYTNKFLLIPESGDYFIYSQVTFRGMTSECSEIRQAGRPNKPDSITVVITKVTDSYPEPTQLLMGTKSVCEVGSNWFQPIYLGAMFSLQEGDKLMVNVSDISLVDYTKEDKTFFGAFLL
notes: also called FLAG-TL1β; FLAG-TNF-gamma-beta; not shown: FLAG tag of the pFLAG-CMV-1 vector at the amino terminus
no binding: [1] | [2] | [3] | [4] | [5]
